In patent US10294487B2, “Methods and compositions involving ALS variants with native substrate preference” (E I DU PONT DE NEMOURS AND COMPANY, priority 2012, dated 2019):
Changes are numbered by the printed parent chain. Names may count otherwise.

B1: GM-ALS_D357E: Glycine Max ALS1 variant with a D→E mutation at position 357 (protein)
chain: MAATASRTTRFSSSSSHPTFPKRITRSTLPLSHQTLTKPNHALKIKCSISKPPTAAPFTKEAPTTEPFVSRFASGEPRKGADILVEALERQGVTTVFAYPGGASMEIHQALTRSAAIRNVLPRHEQGGVFAAEGYARSSGLPGVCIATSGPGATNLVSGLADALMDSVPVVAITGQVPRRMIGTDAFQETPIVEVSRSITKHNYLILDVDDIPRVVAEAFFVATSGRPGPVLIDIPKDVQQQLAVPNWDEPVNLPGYLARLPRPPAEAQLEHIVRLIMEAQKPVLYVGGGSLNSSAELRRFVELTGIPVASTLMGLGTFPIGDEYSLQMLGMHGTVYANYAVDNSDLLLAFGVRFDERVTGKLEAFASRAKIVHIDIDSAEIGKNKQAHVSVCADLKLALKGINMILEEKGVEGKFDLGGWREEINVQKHKFPLGYKTFQDAISPQHAIEVLDELTNGDAIVSTGVGQHQMWAAQFYKYKRPRQWLTSGGLGAMGFGLPAAIGAAVANPGAVVVDIDGDGSFIMNVQELATIRVENLPVKILLLNNQHLGMVVQWEDRFYKSNRAHTYLGDPSSESEIFPNMLKFADACGIPAARVTKKEELRAAIQRMLDTPGPYLLDVIVPHQEHVLPMIPSNGSFKDVITEGDGRTRY
modifications: ALS1 variant D357E
B2: GM-ALS_W555L: Glycine Max ALS1 variant with a W→L mutation at position 555 (protein)
chain: B1 chain with E357D, W555L
modifications: ALS1 variant W555L
B3: GM-ALS_F559D: Glycine Max ALS1 variant with a F→D mutation at position 559 (protein)
chain: B1 chain with E357D, F559D
modifications: ALS1 variant F559D
B4: GM-ALS_F559L: Glycine Max ALS1 variant with a F→L mutation at position 559 (protein)
chain: B1 chain with E357D, F559L
modifications: F559L
B5: GM-ALS_D357N: Glycine Max ALS1 variant with a D→N mutation at position 357 (protein)
chain: B1 chain with E357N
modifications: ALS1 variant D357N
B6: P197S: Chemical mutagenesis of A. thaliana plants; position P197, 178 (protein, UniProt P17597 56-670, looked up, variant P197S)
Acetolactate synthase, …: SSSPSSISAVLNTTTNVTTTPSPTKPTKPETFISRFAPDQPRKGADILVEALERQGVETVFAYPGGASMEIHQALTRSSSIRNVLPRHEQGGVFAAEGYARSSGKPGICIATSGPGATNLVSGLADALLDSVPLVAITGQVSRRMIGTDAFQETPIVEVTRSITKHNYLVMDVEDIPRIIEEAFFLATSGRPGPVLVDVPKDIQQQLAIPNWEQAMRLPGYMSRMPKPPEDSHLEQIVRLISESKKPVLYVGGGCLNSSDELGRFVELTGIPVASTLMGLGSYPCDDELSLHMLGMHGTVYANYAVEHSDLLLAFGVRFDDRVTGKLEAFASRAKIVHIDIDSAEIGKNKTPHVSVCGDVKLALQGMNKVLENRAEELKLDFGVWRNELNVQKQKFPLSFKTFGEAIPPQYAIKVLDELTDGKAIISTGVGQHQMWAAQFYNYKKPRQWLSSGGLGAMGFGLPAAIGASVANPDAIVVDIDGDGSFIMNVQELATIRVENLPVKVLLLNNQHLGMVMQWEDRFYKANRAHTFLGDPAQEDEIFPNMLLFAAACGIPAARVTKKADLREAIQTMLDTPGPYLLDVICPHQEHVLPMIPSGGTFNDVITEGDGRIKY
B7: R199E: Site-directed mutation in A. thaliana ALS; position R199, 180 (protein, UniProt P17597 56-670, looked up, variant R199E)
Acetolactate synthase, …: B6 Acetolactate synthase, … with S142P, R144E
B8: P192S: Site-directed mutation in S. cerevisiae ALS; position P197, 178 (protein, UniProt P07342 91-687, looked up, variant P192S)
Acetolactate synthase …: GLTGGQIFNEMMSRQNVDTVFGYPGGAILPVYDAIHNSDKFNFVLPKHEQGAGHMAEGYARASGKPGVVLVTSGPGATNVVTPMADAFADGIPMVVFTGQVSTSAIGTDAFQEADVVGISRSCTKWNVMVKSVEELPLRINEAFEIATSGRPGPVLVDLPKDVTAAILRNPIPTKTTLPSNALNQLTSRAQDEFVMQSINKAADLINLAKKPVLYVGAGILNHADGPRLLKELSDRAQIPVTTTLQGLGSFDQEDPKSLDMLGMHGCATANLAVQNADLIIAVGARFDDRVTGNISKFAPEARRAAAEGRGGIIHFEVSPKNINKVVQTQIAVEGDATTNLGKMMSKIFPVKERSEWFAQINKWKKEYPYAYMEETPGSKIKPQTVIKKLSKVANDTGRHVIVTTGVGQHQMWAAQHWTWRNPHTFITSGGLGTMGYGLPAAIGAQVAKPESLVIDIDGDASFNMTLTELSSAVQAGTPVKILILNNEEQGMVTQWQSLFYEHRYSHTHQLNPDFIKLAEAMGLKGLRVKKQEELDAKLKEFVSTKGPVLLEVEVDKKVPVLPMVAGGSGLDEFINFDPEVERQQTELRHKRTGGKH
B9: A122V: Site-directed mutation in A. thaliana ALS; position A122, 103 (protein, UniProt P17597 56-670, looked up, variant A122V)
Acetolactate synthase, …: B6 Acetolactate synthase, … with A67V, S142P
B10: F590L: Site-directed mutation in S. cerevisiae ALS; position F578, 559 (protein, UniProt P07342 91-687, looked up, variant F590L)
Acetolactate synthase …: B8 Acetolactate synthase … with S102P, F500L
B11: K251T: Site-directed mutation in S. cerevisiae ALS; position K256, 237 (protein, UniProt P07342 91-687, looked up, variant K251T)
Acetolactate synthase …: B8 Acetolactate synthase … with S102P, K161T
B12: A200V: Site-directed mutation in S. cerevisiae ALS; position A205, 186 (protein, UniProt P07342 91-687, looked up, variant A200V)
Acetolactate synthase …: B8 Acetolactate synthase … with S102P, A110V

Tested on: G. max ALS1 protein
Assay: Colorimetric ALS kinetic assay (Km, kcat) with pyruvate as substrate
Format: biochemical, Glycine max
Details: not given
How it was run: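 Recombinant soybean ALS variants, mature N-terminus from S48, His-MBP tag cleaved off; 0.8 ug enzyme per well in 25 mM potassium phosphate, 15 mM MgCl2, 0.7 mM TPP, 28 uM FAD, 0.2 mg/ml BSA, 0-100 mM pyruvate. Km and Vmax from hyperbolic fit; kcat from Vmax and protein concentration.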

Molecule	Km	kcat
B1	3 mM	2.8 s⁻¹
B2	1.8 mM	1.08 s⁻¹
B3	20 mM	0.417 s⁻¹
B4	6 mM	1.78 s⁻¹
B5	6 mM	2.5 s⁻¹

Tested on: G. max ALS1 protein
Assay: Substrate specificity ratio (Rf), pyruvate versus 2-ketobutyrate, LC-MS of reduced products
Format: biochemical, Glycine max
Details: ratio of [pyruvate] to [2-ketobutyrate] giving equal rates of acetolactate and acetohydroxybutyrate formation; 25 mM pyruvate
How it was run: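 Pyruvate was held at 25 mM while 2-ketobutyrate was varied. Reactions were quenched with sodium borohydride, and the reduced acetolactate and acetohydroxybutyrate were separated on C18 with a methanol gradient and quantified by MS integration. Rf is the [pyruvate]/[2-ketobutyrate] ratio that gives equal formation rates of both products.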

Molecule	Substrate specificity ratio (Rf)
B1	67.6
B2	2.6
B3	96.0
B4	62.5
B5	72.0

Tested on: ALS
Assay: not given
Details: IP (abbreviation not defined); cited from earlier work

Molecule	Resistance pattern, I50 fold increase: IP
B6	IP, 2 fold

Same assay, conditions: chlorsulfuron; cited from earlier work

Molecule	Resistance pattern, I50 fold increase: CS
B6	CS, 1000 fold

Same assay, conditions: imazethapyr; cited from earlier work

Molecule	Resistance pattern, I50 fold increase: IEt
B7	IEt, 50 fold
B8	IEt, 10 fold

Same assay, conditions: imidazolinone(s); cited from earlier work

Molecule	Resistance pattern, I50 fold increase: IM
B9	IMs, 1000-2000 fold
B10	IM, 60 fold
B11	IMs, 10-150 fold
B12	IMs, 10-100 fold

Same assay, conditions: sulfometuron methyl; cited from earlier work

Molecule	Resistance pattern, I50 fold increase: SM
B7	SM, 2 fold

Same assay, conditions: sulfonylurea(s); cited from earlier work

Molecule	Resistance pattern, I50 fold increase: SU
B9	SUs, 4 fold
B10	SUs, 30-300 fold
B8	SUs, 400-2000 fold
B11	SU, 10-100 fold
B12	SUs, 300-700 fold

Tested on: ALS
Assay: not given
Details: cofactor activation constant, flavin adenine dinucleotide; cited from earlier work

Molecule	Kinetic parameters: Kc for FAD
B9	Kc for FAD, 400 % wt

Same assay, conditions: cofactor activation constant, thiamin pyrophosphate; cited from earlier work

Molecule	Kinetic parameters: Kc for TPP
B9	Kc for TPP, 2000 % wt

Same assay, conditions: pyruvate reaction; cited from earlier work

Molecule	Kinetic parameters: Km	Kinetic parameters: kcat
B9	Km, 160 % wt	kcat, 25 % wt
B10	Km, 30 % wt	kcat, 200 % wt
B8	Km, 75 % wt	kcat, 25 % wt
B11	65 % wt	1 % wt
B12	100 % wt	20 % wt
